According to PMC11079029, “Intramolecular autoinhibition regulates the selectivity of PRPF40A tandem WW domains for proline-rich motifs” (Nature Communications, 2024):
Positions count from the first letter of the chain named. Where “and” joins values, the source holds several entries; their conditions need not be identical. Identical values can stand only once.

Experiments:
Conditions in all cases: both partners purified
[1] = molecular target: T1, PRPF40A N-ext-WW12 (residues 56-236) (human, UniProt O75400 56-236); test: ITC; MicroCal PEAQ-ITC, 25 °C, 20 mM sodium phosphate pH 6.5, 100 mM NaCl; PRPF40A constructs and GB1-tagged SF1 16-mer peptides; who was in the syringe is not stated for these panels (Fig. 2B, Fig. 5C); one-site model
T1 construct: PRPF40A isoform 1, residues 56-236: N-terminal proline-rich region and both WW domains; pETM11 vector; also called Nter Ext WW12; N-terminal extended WW12 construct; source: E. coli BL21(DE3), purified (Ni-NTA, TEV cleavage, reverse Ni-NTA, SEC); not shown: His6, N-terminal, cleaved
T1 sequence (looked up): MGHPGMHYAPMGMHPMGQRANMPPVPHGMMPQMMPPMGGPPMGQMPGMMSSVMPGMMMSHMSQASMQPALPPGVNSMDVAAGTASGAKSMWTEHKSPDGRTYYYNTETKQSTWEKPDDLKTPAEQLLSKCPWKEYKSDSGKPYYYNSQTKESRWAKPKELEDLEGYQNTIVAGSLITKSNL

[2] = molecular target: T2, PRPF40A WW12 (tandem WW domains, residues 141-236) (human, UniProt O75400 141-236); test: as above
T2 construct: pETM11 vector (NcoI/KpnI); also called PRPF40A WW tandem; isolated WW domains; source: E. coli BL21(DE3), purified (Ni-NTA, TEV cleavage, reverse Ni-NTA, SEC); not shown: His6, N-terminal, cleaved

[3] = molecular target: T3, PRPF40A WW12 (tandem WW domains, residues 141-236) (human, UniProt O75400 141-236); test: ITC; GB1-tagged SF1/SF3A1 constructs in the syringe and the WW tandem in the cell; 25 °C, 20 mM sodium phosphate pH 6.5, 100 mM NaCl; one-site model; apparent affinities
T3 construct: pETM11 vector, NcoI/KpnI; 15N or 13C,15N labelled for NMR; also called PRPF40A WW tandem; PRPF40A tandem WW domains; source: E. coli BL21(DE3), purified (Ni-NTA, TEV, reverse Ni-NTA, SEC); not shown: His6, N-terminal, cleaved

[4] = molecular target: T4, PRPF40A N-ext-WW12 (residues 56-236) (human, UniProt O75400 56-236); test: ITC; 16-mer SF1 and polyproline peptides (N-terminal GB1 tagged) in the cell and PRPF40A construct in the syringe (said for Fig. 2; not told for Fig. 5C); 25 °C, 20 mM sodium phosphate pH 6.5, 100 mM NaCl; one-site model; apparent affinities
T4 construct: PRPF40A isoform 1, residues 56-236: N-terminal proline-rich region and the WW tandem; also called N-terminal extended WW12 construct; source: E. coli BL21(DE3), purified (Ni-NTA, TEV, reverse Ni-NTA, SEC); not shown: His6, N-terminal, cleaved
T4 sequence (looked up): T1 sequence (looked up)

[5] = molecular target: T5, PRPF40A N-ext-WW12 mutant (PPVP/PALPP motifs changed to alanine residues) (human, UniProt O75400 56-236, PPVP, residues 78-81, to alanine residues | PALPP, residues 123-127, to alanine …); test: as above
T5 construct: PRPF40A isoform 1, residues 56-236, with the motifs PPVP (78-81) and PALPP (123-127) changed to alanine residues; Made by site-directed mutagenesis; also called mutant version of the N-ext-WW12 construct; mutated version of the N-extWW12; source: E. coli BL21(DE3), purified (Ni-NTA, TEV, reverse Ni-NTA, SEC); not shown: His6, N-terminal, cleaved
T5 sequence (looked up): T1 sequence (looked up) with P23A, P24A, V25A, P26A, P68A, L70A, P71A, P72A

[6] = molecular target: T3, PRPF40A WW12 (tandem WW domains, …); test: as above

B1: GB1-SF1(470-485) 16-mer peptide (peptide)
chain: GAMSGSMPPPPMGMMPPPPPPPSGSN
notes: common N-terminal residues after the TEV site (TEVsite-GAMSGS-peptide-SGSN); SF1 (splicing factor 1) residues 470-485; common C-terminal residues; pET24 vector with 6xHis, GB1 and TEV site as N-terminal cassette, not cleaved; source: E. coli BL21(DE3), purified (Ni-NTA, SEC); not shown: GB1, N-terminal, kept
Kd [1]: > 250 µM

B2: GB1-SF1(478-493) 16-mer peptide (peptide)
chain: GAMSGSMPPPPPPPSGQPPPPPSGSN
notes: common N-terminal residues after the TEV site (TEVsite-GAMSGS-peptide-SGSN); SF1 (splicing factor 1) residues 478-493; common C-terminal residues; pET24 vector with 6xHis, GB1 and TEV site as N-terminal cassette, not cleaved; source: E. coli BL21(DE3), purified (Ni-NTA, SEC); not shown: GB1, N-terminal, kept
Kd [2]: 8.26 µM and 10.3 µM and 10.2 µM and 9.59 µM

B3: GB1-SF1(623-638) 16-mer peptide (peptide)
chain: GAMSGSMPPFGMPPAPPPPPPQSGSN
notes: common N-terminal residues after the TEV site (TEVsite-GAMSGS-peptide-SGSN); SF1 (splicing factor 1) residues 623-638; common C-terminal residues; pET24 vector with 6xHis, GB1 and TEV site as N-terminal cassette, not cleaved; source: E. coli BL21(DE3), purified (Ni-NTA, SEC); not shown: GB1, N-terminal, kept
Kd [2]: 21.8 µM and 24.8 µM and 23.3 µM

B4: GB1-tagged SF3A1 Middle Pro (364-413) (domain or fragment, UniProt Q15459 364-413, looked up)
chain: EGQKVPPPPETPMPPPLPPTPDQVIVRKDYDPKASKPLPPAPAPDEYLVS
notes: SF3A1 residues 364-413, proline-rich region with a PPLP motif; also called SF3A1 region (364-413); source: E. coli BL21(DE3), purified (Ni-NTA, SEC), GB1 tag kept; not shown: GB1, N-terminal, kept
Kd [3]: ~10 µM

B5: GB1-tagged SF1 Pro ABCD (410-639) (domain or fragment, UniProt Q15637 410-639, looked up)
chain: GHPMQHNPNGPPPPWMQPPPPPMNQGPHPPGHHGPPPMDQYLGSTPVGSGVYRLHQGKGMMPPPPMGMMPPPPPPPSGQPPPPPSGPLPPWQQQQQQPPPPPPPSSSMASSTPLPWQQNTTTTTTSAGTGSIPPWQQQQAAAAASPGAPQMQGNPTMVPLPPGVQPPLPPGAPPPPPPPPPGSAGMMYAPPPPPPPPMDPSNFVTMMGMGVAGMPPFGMPPAPPPPPPQN
notes: SF1 residues 410-639, the whole proline-rich C-terminal region; also called complete C-terminal region of SF1; source: E. coli BL21(DE3), purified (Ni-NTA, SEC), GB1 tag kept; not shown: GB1, N-terminal, kept
stoichiometry N [3]: 3 PRPF40A tandems per SF1 construct

B6: GB1-tagged SF1 575-590 peptide (SF1 PRPF40A WW binding site) (peptide)
chain: GAMSGSPPLPPGAPPPPPPPPPSGSN
notes: common N-terminal residues after the TEV site (TEVsite-GAMSGS-peptide-SGSN); SF1 residues 575-590; common C-terminal residues; pET24 vector with 6xHis, GB1 and TEV site as N-terminal cassette; not cut with TEV for ITC and NMR titrations; also called SF1_(WWbs); source: E. coli BL21(DE3), purified (Ni-NTA, SEC), GB1 tag kept; not shown: GB1, N-terminal, kept
Kd [4]: 8.8 µM
binding result [5]: binds
Kd [6]: 1.4 µM

B7: GB1-tagged SF1 470-485 peptide (peptide)
chain: GAMSGSMPPPPMGMMPPPPPPPSGSN
notes: common N-terminal residues after the TEV site; SF1 residues 470-485; common C-terminal residues; source: E. coli BL21(DE3), purified (Ni-NTA, SEC), GB1 tag kept; not shown: GB1, N-terminal, kept
Kd [6]: ~10 µM

B8: GB1-SF1(425-440) 16-mer peptide (peptide)
chain: GAMSGSMQPPPPPMNQGPHPPGSGSN
notes: common N-terminal residues after the TEV site (TEVsite-GAMSGS-peptide-SGSN); SF1 (splicing factor 1) residues 425-440; common C-terminal residues; pET24 vector with 6xHis, GB1 and TEV site as N-terminal cassette, not cleaved; source: E. coli BL21(DE3), purified (Ni-NTA, SEC); not shown: GB1, N-terminal, kept
Kd [2]: 15.9 µM and 21.8 µM and 22.9 µM and 20.2 µM
